Measurements from patent US20260092918A1.

Target: H2-K (b) OVA 257-264 SIINFEKL peptide-MHC (mouse) (UniProt P01901)
Assay: cell-based or functional assay

Sequence of UniProt P01901 (P01901 22-305 limits assumed): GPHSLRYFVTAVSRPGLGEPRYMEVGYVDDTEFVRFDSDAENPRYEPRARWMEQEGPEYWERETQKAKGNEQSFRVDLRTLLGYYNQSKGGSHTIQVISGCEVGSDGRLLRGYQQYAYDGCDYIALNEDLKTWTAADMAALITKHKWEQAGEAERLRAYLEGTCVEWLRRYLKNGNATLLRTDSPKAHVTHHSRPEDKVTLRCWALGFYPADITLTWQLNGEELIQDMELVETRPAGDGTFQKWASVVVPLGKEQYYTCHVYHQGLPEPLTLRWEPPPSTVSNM

TCR tension signal, OT1 T-cells cultured in ACM relative to UCM (decrease): 37 % decrease
TCR tension signal, OT1 T-cells cultured in SCM relative to UCM (increase): 1240 % increase
Substance: OT-1 TCR on OT-1 T-cells
